# Assay results published in paper PMC2734247, “The Chlamydia Type III Secretion System C-ring Engages a Chaperone-Effector Protein Complex” (PLoS Pathogens, 2009).
# T1: Ct618-6xHis (aa 1-189) (C. trachomatis serovar D, UniProt O84623 1-189)
# T1 construct: Ct618 of C. trachomatis, amino-terminal domain, aa 1-189; printed as Ct618-6xHis; also called 6xHis-tagged Ct618; amino-terminal domain of Ct618; source: E. coli BL21 DE3 (bicistronic pET-24d with Mcsc), in lysate; purified (Ni2+-NTA agarose, gel filtration)
# T1 sequence: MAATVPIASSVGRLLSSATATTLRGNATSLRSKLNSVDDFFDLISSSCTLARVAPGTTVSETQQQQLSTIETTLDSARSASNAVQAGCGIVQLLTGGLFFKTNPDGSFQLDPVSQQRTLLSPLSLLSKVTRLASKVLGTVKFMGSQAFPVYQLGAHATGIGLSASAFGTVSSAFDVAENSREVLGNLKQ
# Key:
# [1] = target: Cap1-6xHis (aa 1-298) (C. trachomatis serovar D); experiment: SEC; proteins eluted from Ni2+-NTA (complexes formed by co-expression in E. coli) on a 16/60 Sephacryl S-100 HR column; 10 mM Tris-HCl/50 mM phosphate buffer/150 mM NaCl pH 8.0; sizes by a low molecular weight calibration kit
# [2] = target: the molecule itself; experiment: cross-linking; purified 6xHis-Mcsc treated with 0.25-1 mM DSP for 20 min at 4 C; SDS-PAGE with or without 50 mM DTT; immunoblot with Mcsc antibodies
# Ct618-6xHis (aa 1-189) = target: T1, Ct618-6xHis (aa 1-189); experiment: SEC; proteins eluted from Ni2+-NTA (complexes formed by co-expression in E. coli) on a 16/60 Sephacryl S-100 HR column; 10 mM Tris-HCl/50 mM phosphate buffer/150 mM NaCl pH 8.0; sizes by a low molecular weight calibration kit; conditions: both partners purified
molecule,measurement,setting,value
"Mcsc, untagged, co-expressed from a bicistronic vector (from UniProt O84262 1-163) (natural protein)",stoichiometry N (Mcsc subunits per effector protein),[1],2
"6xHis-Mcsc (natural protein, Ct260 (Mcsc) of C. trachomatis, amplified from serovar D genomic DNA; printed as 6xHis-Mcsc, vector pET15b; also called hexahistidine-tagged Mcsc (Ct260); 6xHis-tagged Mcsc dimers; source: E. coli BL21 DE3 (pET15b-Mcsc), purified (Ni2+-NTA agarose, gel filtration)) MTTWTLNHNNLTKFLTHAQLEPSLERESGLIYITVPAGEHELPLFFVIRNEGEVLQLVCYFPYQIQQNQRDTTARLLHLVNRDIDIPGFGMDEEQNIIFYRLVIPCLKGEINEDLLRVYIDTIKLICDSFFHAIGLISTGNMDLDELKKQAKLENNQSDQLEP",stoichiometry N,[2],2
"Mcsc, untagged, co-expressed from a bicistronic vector (natural protein, Ct260 (Mcsc) of C. trachomatis, amplified from serovar D genomic DNA; also called untagged Mcsc; Ct260; source: E. coli BL21 DE3 (bicistronic pET-24d), in lysate; co-purified with the 6xHis-tagged effector (Ni2+-NTA agarose, gel filtration)) MTTWTLNHNNLTKFLTHAQLEPSLERESGLIYITVPAGEHELPLFFVIRNEGEVLQLVCYFPYQIQQNQRDTTARLLHLVNRDIDIPGFGMDEEQNIIFYRLVIPCLKGEINEDLLRVYIDTIKLICDSFFHAIGLISTGNMDLDELKKQAKLENNQSDQLEP",stoichiometry N,Ct618-6xHis (aa 1-189),2 Mcsc subunits per effector protein
